Measurements: patent US20240376151A1, “STAPLED PEPTIDES AND METHODS THEREOF” (FOG PHARMACEUTICALS, INC., priority 2022, published 2024)
Numbered stars: 1 amine (or outer) side, 2 acyl side, 3 side chain; on linkers, the order of the positions; unused ones are H or OH. Bridge positions count the residues as written; N and C are the ends. Ends that are not written are not given here. Phenylene(1,4-NHCOCH2)2 = O=C(C[*:1])Nc1ccc(NC(=O)C[*:2])cc1

Experiments:
CUL5 = biological target: T1, CUL5 (Homo sapiens, UniProt Q93034, L345D/V341R); assay: Naive Library Presenter Screening (phage, NGS), CUL5; type: binding; details: for interaction data at Target Concentration 10: CUL5 target concentration 10 nM; for interaction data at Target Concentration 30: CUL5 target concentration 30 nM; for interaction data at Target Concentration 100: CUL5 target concentration 100 nM; for interaction data at Target Concentration 300: CUL5 target concentration 300 nM; for interaction data at Target Concentration 1000: CUL5 target concentration 1000 nM
T1 construct: GST-TEV (N, cleaved yes); made in house; host or cells: E. coli BL21 CodonPlus
T1 sequence (Q93034 1-386 V341R/L345D): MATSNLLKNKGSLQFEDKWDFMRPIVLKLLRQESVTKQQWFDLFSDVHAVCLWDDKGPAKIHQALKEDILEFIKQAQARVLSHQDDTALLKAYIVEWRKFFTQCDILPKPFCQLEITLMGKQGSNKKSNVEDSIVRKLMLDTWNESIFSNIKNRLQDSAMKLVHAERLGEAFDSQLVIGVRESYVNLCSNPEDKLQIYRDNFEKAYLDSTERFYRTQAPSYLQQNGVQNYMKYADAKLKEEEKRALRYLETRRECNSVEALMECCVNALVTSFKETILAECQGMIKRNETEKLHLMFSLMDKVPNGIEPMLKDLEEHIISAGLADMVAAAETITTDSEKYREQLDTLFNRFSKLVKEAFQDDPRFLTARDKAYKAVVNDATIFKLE

FBXW7-SKP1 = biological target: T2, FBXW7-SKP1 (Homo sapiens, UniProt Q969H0); assay: Naive Library Presenter Screening (phage, NGS), FBXW7-SKP1; type: binding; details: for interaction data at Target Concentration 10: FBXW7 target concentration 10 nM; for interaction data at Target Concentration 30: FBXW7 target concentration 30 nM; for interaction data at Target Concentration 100: FBXW7 target concentration 100 nM; for interaction data at Target Concentration 300: FBXW7 target concentration 300 nM; for interaction data at Target Concentration 1000: FBXW7 target concentration 1000 nM
T2 construct: FBXW7 (Uniprot ID: Q969H0, residues 263-706) with an N-terminal GST-TEV tag and C-terminal AVI tag; GST-TEV (N); made in house; host or cells: E. coli BL21 (DE3)
Procedure: To conduct phage library screening, previously described procedures were utilized in accordance with the present disclosure.
Next-generation sequencing was performed as described in accordance with the present disclosure.
Hit ID and Clustering is performed according to a described procedure in accordance with the present disclosure.

T2 sequence (Q969H0 263-706): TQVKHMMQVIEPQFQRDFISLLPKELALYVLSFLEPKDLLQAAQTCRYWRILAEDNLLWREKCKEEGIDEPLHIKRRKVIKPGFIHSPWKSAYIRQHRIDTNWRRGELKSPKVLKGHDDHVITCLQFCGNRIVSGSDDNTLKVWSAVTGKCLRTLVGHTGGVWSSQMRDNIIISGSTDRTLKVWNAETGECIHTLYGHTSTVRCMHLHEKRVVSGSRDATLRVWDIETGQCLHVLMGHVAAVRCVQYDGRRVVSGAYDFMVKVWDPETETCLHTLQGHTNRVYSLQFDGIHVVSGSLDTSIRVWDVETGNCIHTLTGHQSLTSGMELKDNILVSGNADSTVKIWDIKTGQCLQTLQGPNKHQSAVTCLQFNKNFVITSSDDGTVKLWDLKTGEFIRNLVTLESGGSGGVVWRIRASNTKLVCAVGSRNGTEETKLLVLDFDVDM
T2 sequence (P63208 whole entry partner, the tested form may be a part): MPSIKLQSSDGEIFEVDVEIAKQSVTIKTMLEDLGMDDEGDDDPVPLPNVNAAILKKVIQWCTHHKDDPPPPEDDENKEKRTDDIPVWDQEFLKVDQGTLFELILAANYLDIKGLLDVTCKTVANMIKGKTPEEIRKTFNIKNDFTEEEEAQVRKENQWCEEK

Sequence | interaction data at Target Concentration 10 (CUL5) | interaction data at Target Concentration 30 (CUL5) | interaction data at Target Concentration 100 (CUL5) | interaction data at Target Concentration 300 (CUL5) | interaction data at Target Concentration 1000 (CUL5; first column) | interaction data at Target Concentration 1000 (CUL5; second column) | interaction data at Target Concentration 10 (FBXW7-SKP1) | interaction data at Target Concentration 30 (FBXW7-SKP1) | interaction data at Target Concentration 100 (FBXW7-SKP1) | interaction data at Target Concentration 300 (FBXW7-SKP1) | interaction data at Target Concentration 1000 (FBXW7-SKP1; first column) | interaction data at Target Concentration 1000 (FBXW7-SKP1; second column)
DPAIQQCAEAAWSCYVE | 0 | 13 | 30 | 40 | 14 | 0 | – | – | – | – | – | –
DPAMTWCLNAAELCEFW | – | – | – | – | – | – | 0 | 0 | 0 | 3 | 17 | 83
DPANIACDDAALLCAFW | – | – | – | – | – | – | 0 | 0 | 2 | 7 | 5 | 8
DPANIACDDAALLCEFW | – | – | – | – | – | – | 4 | 131 | 203 | 946 | 1140 | 1464
DPANIACDDAALLCELW | – | – | – | – | – | – | 0 | 1 | 1 | 7 | 8 | 6
DPANWVCMDAAELCDFY (DPANWVCMDAAELCDFY-NH2; linker 7-14 via Phenylene(1,4-NHCOCH2)2 (inferred)) | – | – | – | – | – | – | 0 | 0 | 5 | 2 | 99 | 15
DPATFACANAAWECYAR | 0 | 6 | 25 | 11 | 35 | 0 | – | – | – | – | – | –
DPATYFCYDAAELCDWW | – | – | – | – | – | – | 0 | 0 | 1 | 5 | 5 | 82
DPAWAICAEAAWDCFMI | 0 | 14 | 13 | 58 | 11 | 0 | – | – | – | – | – | –
DPAWFDCAEAAWQCVFI | 2 | 35 | 91 | 170 | 31 | 0 | – | – | – | – | – | –
DPAWFTCAQAAWDCVFH | 0 | 65 | – | 96 | 224 | 0 | – | – | – | – | – | –
DPAWHMCAEAAWQCAFW (not fully specified (C-terminus, bridges); cysteine pairing not given here) | 5 | 61 | 106 | 119 | 152 | 0 | – | – | – | – | – | –
DPAWMRCATAAWECVMT | 16 | 22 | 151 | 104 | – | 0 | – | – | – | – | – | –
DPAYFSCEDAAELCEWY | – | – | – | – | – | – | 0 | 0 | 1 | 3 | 13 | 38
